In paper PMC2132604 one finds reduction of association relative to wild-type FAK (densitometry) data, which are given here for 1 substance.

The target of this assay is p130^Cas, endogenous in CHO cells (Chinese hamster (endogenous in CHO)). In words: co-IP.

In turn, “FAK P712/715A double point mutant, epitope-tagged, expressed from pCDM8-P712/715A in CHO cells (from UniProt Q00944 1-1053) (enzyme)” registered a reduction of association relative to wild-type FAK (densitometry) of 50%.
